In PMC4107794 (The Journal of Cell Biology, 2014):

What was measured:
[1] = biological target: GST-Rad18 (UniProt Q9NS91 1-495); experiment: pull-down
[2] = biological target: FLAG-Rad18 (UniProt Q9NS91 1-495); experiment: pull-down
FLAG-Rad18, sequence (Q9NS91 whole entry): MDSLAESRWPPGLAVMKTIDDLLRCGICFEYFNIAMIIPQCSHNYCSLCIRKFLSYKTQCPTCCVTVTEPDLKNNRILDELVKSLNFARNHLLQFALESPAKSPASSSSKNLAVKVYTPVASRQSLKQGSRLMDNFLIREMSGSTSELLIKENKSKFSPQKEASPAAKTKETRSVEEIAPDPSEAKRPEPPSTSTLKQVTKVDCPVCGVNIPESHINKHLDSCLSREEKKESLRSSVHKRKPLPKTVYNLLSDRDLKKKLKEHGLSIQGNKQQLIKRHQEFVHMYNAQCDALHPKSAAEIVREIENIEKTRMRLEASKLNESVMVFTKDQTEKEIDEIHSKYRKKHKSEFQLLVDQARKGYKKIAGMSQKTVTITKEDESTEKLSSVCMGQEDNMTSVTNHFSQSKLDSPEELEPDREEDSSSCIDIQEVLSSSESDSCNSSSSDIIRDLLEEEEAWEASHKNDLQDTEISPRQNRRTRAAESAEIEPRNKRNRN

GST-Rad18, sequence (Q9NS91 whole entry): as above

binding result [1]: binds | binding result [2]: binds
B1: FLAG-SHPRH (natural protein)
chain: MSSRRKRAPPVRVDEEKRQQLHWNMHEDRRNEPIIISDDDEQPCPGSDTSSAHYIILSDSLKEEVAHRDKKRCSKVVSFSKPIEKEETVGIFSPLSVKLNIVISPYHFDNSWKAFLGELTLQLLPAQSLIENFSERSITLMSSESSNQFLIYVHSKGEDVEKQKKEPMSICDKGILVESSFSGEMLEDLGWLQKKRRIKLYQKPEGNHIIKVGIYLLEAGLAKLDFLSDANSRMKKFNQLMKKVMEKLHNSIIPDVLEEDEDDPESEPEGQDIDELYHFVKQTHQQETQSIQVDVQHPALIPVLRPYQREAVNWMLQQECFRSSPATESALHFLWREIVTSEGLKLYYNPYTGCIIREYPNSGPQLLGGILADEMGLGKTVEVLALILTHTRQDVKQDALTLPEGKVVNYFIPSHYFGGKLKKTEIQNIEFEPKEKVQCPPTRVMILTAVKEMNGKKGVSILSIYKYVSSIYRYDVQRNRSLLKRMLKCLIFEGLVKQIKGHGFSGTFTLGKNYKEEDICDKTKKQAVGSPRKIQKETRKSGNKDTDSEYLPSDTSDDDDDPYYYYYKSRRNRSKLRKKLVPSTKKGKSQPFINPDSQGHCPATSDSGITDVAMSKSTCISEFNQEHETEDCAESLNHADSDVPPSNTMSPFNTSDYRFECICGELDQIDRKPRVQCLKCHLWQHAKCVNYDEKNLKIKPFYCPHCLVAMEPVSTRATLIISPSSICHQWVDEINRHVRSSSLRVLVYQGVKKDGFLQPHFLAEQDIVIITYDVLRSELNYVDIPHSNSEDGRRLRNQKRYMAIPSPLVAVEWWRICLDEAQMVECPTVKAAEMAQRLSGINRWCISGTPVQRGLEDLFGLVVFLGIEPYCVKHWWVRLLYRPYCKKNPQHLYSFIAKILWRSAKKDVIDQIQIPPQTEEIHWLHFSPVERHFYHRQHEVCCQDVVVKLRKISDWALKLSSLDRRTVTSILYPLLRLRQACCHPQAVRGEFLPLQKSTMTMEELLTSLQKKCGTECEEAHRQLVCALNGLAGIHIIKGEYALAAELYREVLRSSEEHKGKLKTDSLQRLHATHNLMELLIARHPGIPPTLRDGRLEEEAKQLREHYMSKCNTEVAEAQQALYPVQQTIHELQRKIHSNSPWWLNVIHRAIEFTIDEELVQRVRNEITSNYKQQTGKLSMSEKFRDCRGLQFLLTTQMEELNKCQKLVREAVKNLEGPPSRNVIESATVCHLRPARLPLNCCVFCKADELFTEYESKLFSNTVKGQTAIFEEMIEDEEGLVDDRAPTTTRGLWAISETERSMKAILSFAKSHRFDVEFVDEGSTSMDLFEAWKKEYKLLHEYWMALRNRVSAVDELAMATERLRVRDPREPKPNPPVLHIIEPHEVEQNRIKLLNDKAVATSQLQKKLGQLLYLTNLEKSQDKTSGGVNPEPCPICARQLGKQWAVLTCGHCFCNECISIIIEQYSVGSHRSSIKCAICRQTTSHKEISYVFTSEKANQEEDIPVKGSHSTKVEAVVRTLMKIQLRDPGAKALVFSTWQDVLDIISKALTDNNMEFAQISRVKTFQENLSAFKRDPQINILLLPLHTGSNGLTIIEATHVLLVEPILNPAHELQAIGRVHRIGQTKPTIVHRFLIKATIEERMQAMLKTAERSHTNSSAKHSEASVLTVADLADLFTKETEELE
